Results as given in the supplement of paper PMC6757056.
± gives the standard deviation of the averaged measurements.

B1: library; a variant is named by its letters at N, in order (parent)
chain: GCUGUCACCGAGAAACUGUGAAGUAUAUCUUAAACCUGGGCACUUAAAAGAUAUAUGGAGUUAGUAGUGCAACCUGCUCGGUCUGAUGAGUCCNNNNNNGGACGAAACAGC

Columns and labels:
[1] = variants of: B1; assay: FACS-Seq fitted mean relative fluorescence mCherry/BFP without ligand (log10 relative fluorescence); HEK293T; ligand: cyclic di-GMP (c-di-GMP-II aptamer); higher = higher reporter protein expression; conditions: ligand present: no
How it was run: (§1)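 Genomic DNA from 6 mCherry/BFP sort bins was PCR-amplified, barcoded and sequenced on MiSeq. The sorted cells were enriched HEK293T libraries, lentivirally transduced with a ribozyme-switch mCherry reporter and an EF1α-BFP marker, incubated with or without ligand for 48 h. Fluorescence derives from a normal fit to the bin counts. The fit was on log10(mCherry/BFP), and means were scaled to five spiked-in control ribozymes.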

[2] = variants of: B1; assay: normalized RNA/DNA level without ligand (relative to sTRSVctl = 100) (log10 (% of sTRSVctl)); HEK293T; ligand: cyclic di-GMP (c-di-GMP-II aptamer); higher = less ribozyme self-cleavage, higher mRNA level; conditions: reporter: mCherry (pCS4076), ligand present: no
How it was run: (§2)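 Total RNA, extracted with EDTA 72 h after HEK293T cells were transfected with 4 µg per 6-well well of reporter-linked ribozyme switch library plasmids, was reverse-transcribed, amplified, barcoded and sequenced. Ligand, if used, was added 1 h before transfection. RNA level was derived from RNA reads divided by DNA reads and normalized to a spiked-in non-cleaving sequence or to the top sequences. This was multiplied by 100 and log10-transformed, with the top set of 25 sequences and a ≥100 DNA read minimum.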

[3] = variants of: B1; assay: FACS-Seq fitted mean relative fluorescence mCherry/BFP with ligand (log10 relative fluorescence); HEK293T; ligand: cyclic di-GMP (c-di-GMP-II aptamer); ligand concentration (+) FACS-Seq: 1 mM; higher = higher reporter protein expression; conditions: ligand present: yes
How it was run: as §1

[4] = variants of: B1; assay: normalized RNA/DNA level with ligand (relative to sTRSVctl = 100) (log10 (% of sTRSVctl)); HEK293T; ligand: cyclic di-GMP (c-di-GMP-II aptamer); ligand concentration (+) RNA-Seq: 1 mM; higher = less ribozyme self-cleavage, higher mRNA level; conditions: reporter: mCherry (pCS4076), ligand present: yes
How it was run: as §2

| Variant | FACS-Seq fitted mean (log10) [1] | normalized RNA/DNA level without ligand (log10) [2] | FACS-Seq fitted mean (log10) [3] | normalized RNA/DNA level with ligand (log10) [4] |
| --- | --- | --- | --- | --- |
| GCUGUCACCGAGAAACUGUGAAGUAUAUCUUAAACCUGGGCACUUAAAAGAUAUAUGGAGUUAGUAGUGCAACCUGCUCGGUCUGAUGAGUCCACAGUUGGACGAAACAGC [ACAGUU] | -0.579 ± 0.027 | 1.32 ± 0.13 | -0.312 ± 0.09 | 1.5 ± 0.073 |
| GCUGUCACCGAGAAACUGUGAAGUAUAUCUUAAACCUGGGCACUUAAAAGAUAUAUGGAGUUAGUAGUGCAACCUGCUCGGUCUGAUGAGUCCCCAUGCGGACGAAACAGC [CCAUGC] | 0.318 ± 0.13 | 1.673 ± 0.0061 | 0.419 ± 0.012 | 1.82 ± 0.11 |
| GCUGUCACCGAGAAACUGUGAAGUAUAUCUUAAACCUGGGCACUUAAAAGAUAUAUGGAGUUAGUAGUGCAACCUGCUCGGUCUGAUGAGUCCACAUAGGGACGAAACAGC [ACAUAG] | -0.486 ± 0.035 | 1.41 ± 0.11 | -0.109 ± 0.082 | 1.66 ± 0.05 |
| GCUGUCACCGAGAAACUGUGAAGUAUAUCUUAAACCUGGGCACUUAAAAGAUAUAUGGAGUUAGUAGUGCAACCUGCUCGGUCUGAUGAGUCCACAUAAGGACGAAACAGC [ACAUAA] | -0.3987 ± 0.0024 | 1.39 ± 0.12 | -0.112 ± 0.0021 | 1.63 ± 0.063 |
| GCUGUCACCGAGAAACUGUGAAGUAUAUCUUAAACCUGGGCACUUAAAAGAUAUAUGGAGUUAGUAGUGCAACCUGCUCGGUCUGAUGAGUCCACAUACGGACGAAACAGC [ACAUAC] | -0.256 ± 0.19 | 1.57 ± 0.056 | -0.161 ± 0.28 | 1.76 ± 0.097 |
| GCUGUCACCGAGAAACUGUGAAGUAUAUCUUAAACCUGGGCACUUAAAAGAUAUAUGGAGUUAGUAGUGCAACCUGCUCGGUCUGAUGAGUCCGCAUCUGGACGAAACAGC [GCAUCU] | -1.08 ± 0.08 | 1.614 ± 0.0091 | -0.903 ± 0.025 | 1.79 ± 0.094 |
| GCUGUCACCGAGAAACUGUGAAGUAUAUCUUAAACCUGGGCACUUAAAAGAUAUAUGGAGUUAGUAGUGCAACCUGCUCGGUCUGAUGAGUCCCCAUAAGGACGAAACAGC [CCAUAA] | -0.533 ± 0.16 | 1.44 ± 0.14 | -0.252 ± 0.0063 | 1.67 ± 0.079 |
| GCUGUCACCGAGAAACUGUGAAGUAUAUCUUAAACCUGGGCACUUAAAAGAUAUAUGGAGUUAGUAGUGCAACCUGCUCGGUCUGAUGAGUCCUCAGUGGGACGAAACAGC [UCAGUG] | -0.446 ± 0.02 | 1.669 ± 0.0062 | -0.142 ± 0.12 | 1.83 ± 0.15 |
| GCUGUCACCGAGAAACUGUGAAGUAUAUCUUAAACCUGGGCACUUAAAAGAUAUAUGGAGUUAGUAGUGCAACCUGCUCGGUCUGAUGAGUCCUCAGUCGGACGAAACAGC [UCAGUC] | -0.277 ± 0.12 | 1.697 ± 0.0098 | -0.0482 ± 0.1 | 1.85 ± 0.082 |
| GCUGUCACCGAGAAACUGUGAAGUAUAUCUUAAACCUGGGCACUUAAAAGAUAUAUGGAGUUAGUAGUGCAACCUGCUCGGUCUGAUGAGUCCGCAUAGGGACGAAACAGC [GCAUAG] | -0.627 ± 0.0092 | 1.44 ± 0.085 | -0.39 ± 0.049 | 1.66 ± 0.093 |
| GCUGUCACCGAGAAACUGUGAAGUAUAUCUUAAACCUGGGCACUUAAAAGAUAUAUGGAGUUAGUAGUGCAACCUGCUCGGUCUGAUGAGUCCGCAUACGGACGAAACAGC [GCAUAC] | -0.0759 ± 0.13 | 1.42 ± 0.19 | 0.23 ± 0.036 | 1.6 ± 0.072 |
| GCUGUCACCGAGAAACUGUGAAGUAUAUCUUAAACCUGGGCACUUAAAAGAUAUAUGGAGUUAGUAGUGCAACCUGCUCGGUCUGAUGAGUCCCCAGUUGGACGAAACAGC [CCAGUU] | 0.0604 ± 0.26 | 1.69 ± 0.04 | 0.36 ± 0.0063 | 1.87 ± 0.077 |
| GCUGUCACCGAGAAACUGUGAAGUAUAUCUUAAACCUGGGCACUUAAAAGAUAUAUGGAGUUAGUAGUGCAACCUGCUCGGUCUGAUGAGUCCCCAGUCGGACGAAACAGC [CCAGUC] | -0.422 ± 0.072 | 1.68 ± 0.023 | -0.0312 ± 0.045 | 1.83 ± 0.077 |
